Experimental data taken from publication PMC7337904.

Legend:
[1] = target: AvaII restriction endonuclease (wild type) (UniProt Q8YYB7); test: EMSA; details: EMSA: 20 mM Tris-acetate pH 7.9, 50 mM K-acetate, 10 mM CaCl2 (replacing Mg-acetate), 1 mg/ml BSA, 37 C 30 min; 10 pmol duplex; 8% native PAGE in TBE or TB + …
[2] = target: AvaII restriction endonuclease (Anabaena variabilis); test: crystal structure; three crystal forms: AvaII alone, with partially cleaved dsDNA, and with RNA/DNA heteroduplex; protein in 50 mM Tris-HCl pH 7.4, 0.2 M NaCl, 5 mM CaCl2, 1 mM DTT, 5% glycerol; sitting drops at 18°C

Substance: 41-nt RNA/DNA heteroduplex, GGACC in RNA or DNA strand
- binding signal (fold weaker than dsDNA) [1]: 100

Substance: AvaII restriction endonuclease (enzyme)
- stoichiometry N [2]: 2
